In US20250145711A1 (Janssen / Centocor, published 2025):

B1: BC3B51 (bispecific antibody, human IgG1, kappa, L234A L235A)
chain: QVQLVQSGAEVKKPGSSVKVSCKASGYTFTRSTMHWVKQAPGQGLEWIGYINPSSAYTNYNQKFQGRVTLTADKSTSTAYMELSSLRSEDTAVYYCASPQVHYDYQGFPYWGQGTLVTVSSGGSEGKSSGSGSESKSTGGSEIVLTQSPATLSASPGERVTLSCSASSSVSYMNWYQQKPGQAPRRWIYDSSKLASGVPARFSGSGSGRDYTLTISSLEPEDFAVYYCQQWSRNPPTFGGGTKVEIKEPKSSDKTHTCPPCPAPEAAGGPSVFLFPPKPKDTLMISRTPEVTCVVVSVSHEDPEVKFNWYVDGVEVHNAKTKPREEQYNSTYRVVSVLTVLHQDWLNGKEYKCKVSNKALPAPIEKTISKAKGQPREPQVYVYPPSREEMTKNQVSLTCLVKGFYPSDIAVEWESNGQPENNYKTTPPVLDSDGSFALVSKLTVDKSRWQQGNVFSCSVMHEALHNHYTQKSLSLSPG
heavy: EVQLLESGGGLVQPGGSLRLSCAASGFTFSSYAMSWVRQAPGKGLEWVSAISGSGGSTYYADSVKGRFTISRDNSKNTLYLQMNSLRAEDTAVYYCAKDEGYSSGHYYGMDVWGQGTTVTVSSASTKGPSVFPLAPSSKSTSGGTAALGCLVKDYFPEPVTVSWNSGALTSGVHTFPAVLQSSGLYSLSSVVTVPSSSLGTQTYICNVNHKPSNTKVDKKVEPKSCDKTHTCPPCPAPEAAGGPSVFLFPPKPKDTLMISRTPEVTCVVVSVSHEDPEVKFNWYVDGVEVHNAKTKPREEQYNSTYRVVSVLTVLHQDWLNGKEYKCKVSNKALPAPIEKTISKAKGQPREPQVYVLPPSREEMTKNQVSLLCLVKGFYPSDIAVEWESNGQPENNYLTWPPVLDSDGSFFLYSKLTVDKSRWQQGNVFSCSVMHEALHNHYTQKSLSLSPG
light: EIVLTQSPGTLSLSPGERATLSCRASQSISSSFLTWYQQKPGQAPRLLIYGASSRATGIPDRFSGGGSGTDFTLTISRLEPEDFAVYYCQHYGSSPMYTFGQGTKLEIKRTVAAPSVFIFPPSDEQLKSGTASVVCLLNNFYPREAKVQWKVDNALQSGNSQESVTEQDSKDSTYSLSSTLTLSKADYEKHKVYACEVTHQGLSSPVTKSFNRGEC
notes: IgG1 BCMAxCD3; HC1: CD3B2030-N106Q HL scFv-Fc; also called BC3B51.001; B2030 HL NtoQ
B2: BC3B103 (bispecific antibody, human IgG1, kappa, L234A L235A)
chain: QVQLVQSGAEVKKPGSSVKVSCKASGYTFTRSTMHWVKQAPGQGLEWIGYINPSSAYTNYNQKFQGRVTLTADKSTSTAYMELSSLRSEDTAVYYCASPQVHYDYAGFPYWGQGTLVTVSSGGSEGKSSGSGSESKSTGGSEIVLTQSPATLSASPGERVTLSCSASSSVSYMNWYQQKPGQAPRRWIYDSSKLASGVPARFSGSGSGRDYTLTISSLEPEDFAVYYCQQWSRNPPTFGGGTKVEIKEPKSSDKTHTCPPCPAPEAAGGPSVFLFPPKPKDTLMISRTPEVTCVVVSVSHEDPEVKFNWYVDGVEVHNAKTKPREEQYNSTYRVVSVLTVLHQDWLNGKEYKCKVSNKALPAPIEKTISKAKGQPREPQVYVYPPSREEMTKNQVSLTCLVKGFYPSDIAVEWESNGQPENNYKTTPPVLDSDGSFALVSKLTVDKSRWQQGNVFSCSVMHEALHNHYTQKSLSLSPG
heavy: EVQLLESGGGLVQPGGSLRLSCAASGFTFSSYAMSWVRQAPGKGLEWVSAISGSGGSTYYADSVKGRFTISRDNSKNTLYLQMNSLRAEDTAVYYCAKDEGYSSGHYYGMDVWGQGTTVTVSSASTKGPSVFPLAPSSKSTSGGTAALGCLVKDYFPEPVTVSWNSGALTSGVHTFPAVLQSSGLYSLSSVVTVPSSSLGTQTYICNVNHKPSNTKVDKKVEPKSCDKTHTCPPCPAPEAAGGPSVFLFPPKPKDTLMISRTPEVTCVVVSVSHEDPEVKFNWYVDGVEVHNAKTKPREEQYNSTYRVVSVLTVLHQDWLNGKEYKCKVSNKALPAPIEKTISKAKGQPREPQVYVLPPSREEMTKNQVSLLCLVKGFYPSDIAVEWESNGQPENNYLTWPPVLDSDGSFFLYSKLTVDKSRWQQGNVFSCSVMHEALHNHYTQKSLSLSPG
light: EIVLTQSPGTLSLSPGERATLSCRASQSISSSFLTWYQQKPGQAPRLLIYGASSRATGIPDRFSGGGSGTDFTLTISRLEPEDFAVYYCQHYGSSPMYTFGQGTKLEIKRTVAAPSVFIFPPSDEQLKSGTASVVCLLNNFYPREAKVQWKVDNALQSGNSQESVTEQDSKDSTYSLSSTLTLSKADYEKHKVYACEVTHQGLSSPVTKSFNRGEC
notes: IgG1 BCMAxCD3; HC1: CD3B2030-N106A HL scFv-Fc; also called BC3B103.001; B2030 HL NtoA
B3: GCDB131 (bispecific antibody, human IgG1, kappa, L234A L235A)
heavy: QVQLLQSAAEVKKPGESLKISCKGSGYTFTRSTMHWVRQTPGKGLEWMGYINPSSAYTNYNQKFKDQVTISADKSISTAYLQWSSLKASDTAMYYCARPQVHYDYNGFPYWGQGTLVTVSSASTKGPSVFPLAPSSKSTSGGTAALGCLVKDYFPEPVTVSWNSGALTSGVHTFPAVLQSSGLYSLSSVVTVPSSSLGTQTYICNVNHKPSNTKVDKKVEPKSCDKTHTCPPCPAPEAAGGPSVFLFPPKPKDTLMISRTPEVTCVVVSVSHEDPEVKFNWYVDGVEVHNAKTKPREEQYNSTYRVVSVLTVLHQDWLNGKEYKCKVSNKALPAPIEKTISKAKGQPREPQVYVYPPSREEMTKNQVSLTCLVKGFYPSDIAVEWESNGQPENNYKTTPPVLDSDGSFALVSKLTVDKSRWQQGNVFSCSVMHEALHNHYTQKSLSLSPG
light: EIVLTQSPSAMSASVGDRVTITCSASSSVSYMNWYQQKPGKVPKRLIYDSSKLASGVPSRFSGSGSGTEYTLTISSLQPEDFATYYCQQWSRNPPTFGQGTMLEIKRTVAAPSVFIFPPSDEQLKSGTASVVCLLNNFYPREAKVQWKVDNALQSGNSQESVTEQDSKDSTYSLSSTLTLSKADYEKHKVYACEVTHQGLSSPVTKSFNRGEC
chain: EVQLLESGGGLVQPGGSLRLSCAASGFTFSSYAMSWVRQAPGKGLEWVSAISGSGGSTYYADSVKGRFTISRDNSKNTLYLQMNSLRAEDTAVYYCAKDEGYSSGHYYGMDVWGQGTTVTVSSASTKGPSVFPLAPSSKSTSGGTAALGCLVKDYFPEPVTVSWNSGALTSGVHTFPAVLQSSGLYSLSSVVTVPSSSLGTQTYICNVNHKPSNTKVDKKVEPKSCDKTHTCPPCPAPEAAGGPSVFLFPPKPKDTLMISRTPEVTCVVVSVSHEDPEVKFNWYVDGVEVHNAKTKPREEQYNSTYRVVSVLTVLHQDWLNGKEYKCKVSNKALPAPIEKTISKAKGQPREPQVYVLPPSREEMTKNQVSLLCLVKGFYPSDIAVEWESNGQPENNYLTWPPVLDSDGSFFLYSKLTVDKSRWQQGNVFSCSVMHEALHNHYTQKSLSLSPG

Tests used:
[1] = molecular target: T1, Human CD3 epsilon (CD3ε), on primary human pan T cells (human, UniProt P07766 23-207); assay: cell-based or functional assay
[2] = molecular target: T1, Human CD3 epsilon (CD3ε), on primary …; assay: cell-based or functional assay; remark: listed apart in the source
[3] = molecular target: T1, Human CD3 epsilon (CD3ε), on primary …; assay: flow cytometry on human T cells, anti-human IgG Fc A647 detection
In short: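 Cryopreserved primary human pan T cells (50,000/well) incubated 1 hr at 37 °C with serially diluted bispecific antibodies; bound antibody detected with A647 anti-human IgG Fc (2 ug/mL, 30 min on ice). Read by iQue flow cytometry, gated on singlets and SYTOX green-negative live cells; secondary-alone wells as background.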

T1 sequence (P07766 23-207 limits assumed): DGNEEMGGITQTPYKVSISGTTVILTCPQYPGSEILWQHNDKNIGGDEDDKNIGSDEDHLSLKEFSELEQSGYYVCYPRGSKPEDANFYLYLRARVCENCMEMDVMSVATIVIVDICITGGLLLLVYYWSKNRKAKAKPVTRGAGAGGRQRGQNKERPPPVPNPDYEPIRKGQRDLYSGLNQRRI

Row | Binder | EC50, Cytotoxicity [1] [nM] | H929 Killing EC50 [2] [nM] | EC50 [3] [nM]
1 | B1 | 0.0278 | 0.0129 | 1.9
2 | B2 | 0.0921 | 0.0921 | 4.6
3 | B3 | 0.0334 |  | 
